Experimental data: PMC2132798 (The Journal of Cell Biology, 1998)

B1: Myo5p (1,082–1,219) (domain or fragment, S. cerevisiae, UniProt Q04439 1082-1219, looked up)
chain: SSKPKEPMFEAAYDFPGSGSPSELPLKKGDVIYITREEPSGWSLGKLLDGSKEGWVPTAYMKPHSGNNNIPTPPQNRDVPKPVLNSVQHDNTSANVIPAAAQASLGDGLANALAARANKMRLESDDEEANEDEEEDDW
B2: Vrp1p (1–200) (domain or fragment, S. cerevisiae, UniProt P37370 1-200, looked up)
chain: MAGAPAPPPPPPPPALGGSAPKPAKSVMQGRDALLGDIRKGMKLKKAETNDRSAPIVGGGVVSSASGSSGTVSSKGPSMSAPPIPGMGAPQLGDILAGGIPKLKHINNNASTKPSPSASAPPIPGAVPSVAAPPIPNAPLSPAPAVPSIPSSSAPPIPDIPSSAAPPIPIVPSSPAPPLPLSGASAPKVPQNRPHMPSVR
B3: Myo3p (1,118–1,271) (domain or fragment, S. cerevisiae, UniProt P36006 1118-1271, looked up)
chain: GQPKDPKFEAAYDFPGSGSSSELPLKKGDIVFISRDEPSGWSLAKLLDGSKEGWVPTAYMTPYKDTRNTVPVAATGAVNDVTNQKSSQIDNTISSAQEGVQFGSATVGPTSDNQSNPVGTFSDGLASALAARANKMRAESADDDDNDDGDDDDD
B4: Vrp1p (195–817) (domain or fragment, S. cerevisiae, UniProt P37370 195-817, looked up)
chain: HMPSVRPAHRSHQRKSSNISLPSVSAPPLPSASLPTHVSNPPQAPPPPPTPTIGLDSKNIKPTDNAVSPPSSEVPAGGLPFLAEINARRSERGAVEGVSSTKIQTENHKSPSQPPLPSSAPPIPTSHAPPLPPTAPPPPSLPNVTSAPKKATSAPAPPPPPLPAAMSSASTNSVKATPVPPTLAPPLPNTTSVPPNKASSMPAPPPPPPPPPGAFSTSSALSASSIPLAPLPPPPPPSVATSVPSAPPPPPTLTTNKPSASSKQSKISSSSSSSAVTPGGPLPFLAEIQKKRDDRFVVGGDTGYTTQDKQEDVIGSSKDDNVRPSPISPSINPPKQSSQNGMSFLDEIESKLHKQTSSNAFNAPPPHTDAMAPPLPPSAPPPPITSLPTPTASGDDHTNDKSETVLGMKKAKAPALPGHVPPPPVPPVLSDDSKNNVPAASLLHDVLPSSNLEKPPSPPVAAAPPLPTFSAPSLPQQSVSTSIPSPPPVAPTLSVRTETESISKNPTKSPPPPPSPSTMDTGTSNSPSKNLKQRLFSTGGSTLQHKHNTHTNQPDVDVGRYTIGGSNSIVGAKSGNERIVIDDSRFKWTNVSQMPKPRPFQNKTKLYPSGKGSSVPLDLTLFT

Columns and labels:
Assay in all cases: two-hybrid
Vrp1p (1–200) = target: B2
Vrp1p (195–817) = target: B4
Myo5p (1,082–1,219) = target: B1
Myo3p (1,118–1,271) = target: B3

Row | lacZ activity (Miller units) (Myo5p (1,082–1,219)) | lacZ activity (Miller units) (Myo3p (1,118–1,271)) | Binder | lacZ activity (Miller units) (Vrp1p (1–200)) | lacZ activity (Miller units) (Vrp1p (195–817))
1 | – | – | B1 | 1060 ± 149 | 345 ± 7.3
2 | 140 ± 2.3 | 254 ± 27.1 | B2 | – | –
3 | – | – | B3 | 1610 ± 264 | 96.3 ± 21.8
4 | 28.5 ± 2 | 74.5 ± 4.3 | B4 | – | –
